This test concerns the target T1, biotinylated GITR (human, UniProt Q9Y5U5 26-161, limits assumed, biotinylated (sites not given)).
T1 construct: also called GITR-bio; Biotin-GITR
T1 sequence: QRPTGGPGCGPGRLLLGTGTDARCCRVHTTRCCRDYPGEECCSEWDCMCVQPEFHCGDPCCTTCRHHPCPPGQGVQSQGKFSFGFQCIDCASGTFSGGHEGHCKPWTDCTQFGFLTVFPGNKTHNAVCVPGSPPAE
As to the kind of experiment: BLI (Octet), biotin-GITR on streptavidin tips, antibody supernatant. As to the method: Several hundred germlined antibodies were selected based on binding kinetics as determined by Octet measurements (Octet RED 96 system; ForteBio™ Inc., Menlo Park, Calif.). The experimental procedure was configured according to the instruction manual of the instrument. Biotin-GITR was bound to Streptavidin biosensor (SA) and PBS (pH 7.4) was used as a blank control. Briefly, the interaction analyses were conducted at 30° C. in running buffer (PBS, 0.05% Tween, pH7.4). Sensor tips were pre-wet for 10 minutes in running buffer immediately prior to use, and the micro plates used in the Octet were filled with 200 μl of sample or buffer per well and agitated at 800 rpm. For the experiments, commercially available precoated SA tips were used. Biotinylated GITR was loaded onto the ForteBio SA fibers in PBS pH7.4 for 10 minutes and washed for 4 minutes. For the association phase, the ligand-coated SA tips were immersed for 5 minutes in cell culture supernatant that was diluted 1:10 in running buffer prior to the measurement. Dissociation of the antibody-antigen complex was measured in wells containing the Octet buffer alone for 5 minutes. After each run, the tips were regenerated with Glycine (10 mM, pH 2.0). Affinity, Kₒₙ and Koff were determined with Octet evaluation software v6.3 using a 1:1 binding model with local full fitting.

Positions count from the first letter of the chain named.

B1: germline variant antibody 10 (H1916A11 / K1916A11) (antibody, V domains shown)
VH: QVQLVQSGAEVKKPGASVKVSCKASGYTFTEYAMYWVRQAPGQGLEWMGLIRTYSGGVSYNQKFRGRVTMTVDKSISTAYMELSRLRSDDTAVYYCAKSGTVRGFAYWGQGTLVTVSS
VL: DIVMTQSPDSLAVSLGERATINCKSSQSLLNSSNQKNYLSWYQQKPGQPPKLLIYWASTRESGVPDRFSGSGSGTDFTLTISSVQAEDVAVYHCQNDYSYPYTFGQGTKLEIK
notes: IGHG1/IGKC expression vectors; measured from CHO culture supernatant; also called Antibody ID 10
Usually Kd stands for the constant that tells how readily two partners part at equilibrium. Low values mean tighter binding, high ones weaker binding. Usually koff stands for a measure of how fast the partners let go of each other. The kon is the rate constant with which the complex forms. Regarding B1, the Kd was found to be 0.911 nM, the koff was 0.00056 s⁻¹ and the kon was 615000 M⁻¹ s⁻¹.

B2: germline variant antibody 45 (H1916E05 / K1916E05) (antibody, V domains shown)
VH: B1 VH with A24G, M48I, R65Q, K74T, L113F
VL: B1 VL with S33G, Q43H, S69T, H93Y, Y100F
notes: IGHG1/IGKC expression vectors; measured from CHO culture supernatant; also called Antibody ID 45
In the case of B2, the Kd is 0.562 nM, the dissociation rate constant (koff) stood at 0.000255 s⁻¹ and the on-rate constant (kon) came to 455000 M⁻¹ s⁻¹.

B3: germline variant antibody 1 (H1916A01 / K1916A01) (antibody, V domains shown)
VH: B1 VH with A9T, A24G, M48I, L50V, S59T, R65Q, V68A, K74T
VL: B1 VL with S33G, S40T, Q43H, L52M
notes: IGHG1/IGKC expression vectors; measured from CHO culture supernatant; also called Antibody ID 1
As for B3, the Kd is 0.744 nM, the off-rate constant (koff) is 0.000348 s⁻¹ and the on-rate (kon) was determined as 468000 M⁻¹ s⁻¹.

B4: germline variant antibody 34 (H1916D04 / K1916D04) (antibody, V domains shown)
VH: B1 VH with E31D, L45M, M48I, L50V, Y54F, S59T, K74T
VL: B1 VL with P8T, S40T, S69T, V84L
notes: IGHG1/IGKC expression vectors; measured from CHO culture supernatant; also called Antibody ID 34
On to B4, for which binding was put at a Kd of 0.458 nM, the koff came out at 0.000255 s⁻¹ and the kon came out at 557000 M⁻¹ s⁻¹.

B5: germline variant antibody 9 (H1916A10 / K1916A10) (antibody, V domains shown)
VH: B1 VH with E31G, G57E, V68A
VL: B1 VL with S33G, S40T, L52M, V84L, Y100F
notes: IGHG1/IGKC expression vectors; measured from CHO culture supernatant; also called Antibody ID 9
The molecule B5 had a Kd of 2.68 nM, a koff of 0.000784 s⁻¹ and a kon of 293000 M⁻¹ s⁻¹.

B6: germline variant antibody 31 (H1916D01 / K1916D01) (antibody, V domains shown)
VH: B1 VH with A9T, A24G, Y54F, V58L, S59T, R65K, G66D, T112I, L113P
VL: B1 VL with S40T, S69T, V84L
notes: IGHG1/IGKC expression vectors; measured from CHO culture supernatant; also called Antibody ID 31
Regarding B6, binding was characterised by a dissociation constant (Kd) of 0.418 nM, the koff came out at 0.000211 s⁻¹ and the kon was found to be 505000 M⁻¹ s⁻¹.

B7: germline variant antibody 54 (H1916F09 / K1916F09) (antibody, V domains shown)
VH: B1 VH with Y35H, R65Q, V68A, K74T
VL: B1 VL with S40T, S69T, Y100F
notes: IGHG1/IGKC expression vectors; measured from CHO culture supernatant; also called Antibody ID 54
For B7, the Kd was found to be 1.26 nM, the dissociation rate constant (koff) was found to be 0.000688 s⁻¹ and the kon amounted to 548000 M⁻¹ s⁻¹.

B8: germline variant antibody 39 (H1916D09 / K1916D09) (antibody, V domains shown)
VH: B1 VH with A24G, E31G, Y35H, G66E, V68A, K74T, V114I
VL: B1 VL with S40T, S69T, D97E, Y100F
notes: IGHG1/IGKC expression vectors; measured from CHO culture supernatant; also called Antibody ID 39
On to B8, for which binding was put at a Kd of 0.255 nM, the off-rate (koff) stood at 0.000997 s⁻¹ and the on-rate constant (kon) is 3.91e+06 M⁻¹ s⁻¹.

B9: germline variant antibody 4 (H1916A05 / K1916A05) (antibody, V domains shown)
VH: B1 VH with G44S, Y54F, G57D, R65Q, G66D
VL: B1 VL with Q43H, S69T, H93Y
notes: IGHG1/IGKC expression vectors; measured from CHO culture supernatant; also called Antibody ID 4
As to B9, the Kd turned out to be 1.43 nM, the koff stood at 0.000501 s⁻¹ and the kon came out at 351000 M⁻¹ s⁻¹.

B10: germline variant antibody 2 (H1916A03 / K1916A03) (antibody, V domains shown)
VH: B1 VH with Y35H, L45M, M48I, V68A
VL: B1 VL with S33G, Q43H, H93Y, D97E, Y100F
notes: IGHG1/IGKC expression vectors; measured from CHO culture supernatant; also called Antibody ID 2
For B10, the affinity, expressed as Kd, was 4.23 nM; the koff turned out to be 0.00234 s⁻¹; the kon was 553000 M⁻¹ s⁻¹.

B11: germline variant antibody 50 (H1916F03 / K1916F03) (antibody, V domains shown)
VH: B1 VH with A9T, E31D, M48I, Y54F, R65K, G66E
VL: B1 VL with S40T, L52M, V84L, H93Y
notes: IGHG1/IGKC expression vectors; measured from CHO culture supernatant; also called Antibody ID 50
Molecule B11 yielded a Kd of 1.01 nM, a koff of 0.000254 s⁻¹ and a kon of 252000 M⁻¹ s⁻¹.

B12: germline variant antibody 15 (H1916B05 / K1916B05) (antibody, V domains shown)
VH: B1 VH with A24G, E31D, M48I, L50V, Y54F, G57D, G66E, V68A
VL: B1 VL with S33G, S69T, V84L
notes: IGHG1/IGKC expression vectors; measured from CHO culture supernatant; also called Antibody ID 15
B12 registered an equilibrium dissociation constant (Kd) of 2.22 nM, a koff of 0.000616 s⁻¹ and an on-rate constant (kon) of 278000 M⁻¹ s⁻¹.

B13: germline variant antibody 47 (H1916E08 / K1916E08) (antibody, V domains shown)
VH: B1 VH with E31D, L45M, L50V, S59T, G66D, Y107D
VL: B1 VL with S33G, S69T, Y100F
notes: IGHG1/IGKC expression vectors; measured from CHO culture supernatant; also called Antibody ID 47
Molecule B13 showed a Kd of 2.06 nM, a koff of 0.000804 s⁻¹ and an on-rate (kon) of 391000 M⁻¹ s⁻¹.

B14: germline variant antibody 11 (H1916Al2 / K1916A12) (antibody, V domains shown)
VH: B1 VH with A24G, E31D, Y35H, K74T
VL: B1 VL with Y100F
notes: IGHG1/IGKC expression vectors; measured from CHO culture supernatant; also called Antibody ID 11
B14 registered a Kd of 2.1 nM, an off-rate constant (koff) of 0.000847 s⁻¹ and an on-rate constant (kon) of 403000 M⁻¹ s⁻¹.

B15: germline variant antibody 33 (H1916D03 / K1916D03) (antibody, V domains shown)
VH: B1 VH with E31G, L45M, M48I, S59T, R65Q, K74T
VL: B1 VL with S33G, Q43H, D97E
notes: IGHG1/IGKC expression vectors; measured from CHO culture supernatant; also called Antibody ID 33
Regarding B15, the Kd is 0.0901 nM, the koff amounted to 0.00101 s⁻¹ and the kon was 1.12e+07 M⁻¹ s⁻¹.

B16: germline variant antibody 46 (H1916E06 / K1916E06) (antibody, V domains shown)
VH: B1 VH with Y54F, G57D, V58L, K74T
VL: B1 VL with S33G, Q43H, S69T, V84L
notes: IGHG1/IGKC expression vectors; measured from CHO culture supernatant; also called Antibody ID 46
For the molecule B16, the dissociation constant Kd came out at 0.619 nM, the koff worked out at 0.000248 s⁻¹ and the kon was found to be 400000 M⁻¹ s⁻¹.

B17: germline variant antibody 6 (H1916A07 / K1916A07) (antibody, V domains shown)
VH: B1 VH with A24G, Y54F, R65K, V68A, K74T
VL: B1 VL with S33G, L52M, S69T, V84L
notes: IGHG1/IGKC expression vectors; measured from CHO culture supernatant; also called Antibody ID 6
For B17, the equilibrium dissociation constant (Kd) is 2.7 nM, the dissociation rate constant (koff) turned out to be 0.000579 s⁻¹ and the association rate constant (kon) amounted to 214000 M⁻¹ s⁻¹.

B18: germline variant antibody 38 (H1916D08 / K1916D08) (antibody, V domains shown)
VH: B1 VH with A9T, A24G, E31G, M48I, L50V, R52K, S59T
VL: B1 VL with S33G, S40T, V84L, H93Y
notes: IGHG1/IGKC expression vectors; measured from CHO culture supernatant; also called Antibody ID 38
B18: the equilibrium dissociation constant (Kd) turned out to be 0.0875 nM, the koff worked out at 0.00075 s⁻¹ and the on-rate constant (kon) was determined as 8.57e+06 M⁻¹ s⁻¹.

B19: germline variant antibody 16 (H1916B06 / K1916B06) (antibody, V domains shown)
VH: B1 VH with A9T, E31G, M48I, Y54F, S59T, G66E
VL: B1 VL with S33G, S40T, Q43H, S69T
notes: IGHG1/IGKC expression vectors; measured from CHO culture supernatant; also called Antibody ID 16
On to B19, for which binding was put at a Kd of 1.47 nM, the off-rate (koff) worked out at 0.000523 s⁻¹ and the kon worked out at 356000 M⁻¹ s⁻¹.

B20: germline variant antibody 36 (H1916D06 / K1916D06) (antibody, V domains shown)
VH: B1 VH with A24G, E31D, L45M, M48I, L50V, Y54F, G66D
VL: B1 VL with S40T, Q43H, L52M, A86E, Y100F
notes: IGHG1/IGKC expression vectors; measured from CHO culture supernatant; also called Antibody ID 36
As to B20, the affinity, expressed as Kd, was 0.44 nM; the koff was determined as 0.00028 s⁻¹; the kon is 638000 M⁻¹ s⁻¹.

B21: germline variant antibody 43 (H1916E03 / K1916E03) (antibody, V domains shown)
VH: B1 VH with A24G, L45M, M48I, Y54F, G57D, R65K, V68A
VL: B1 VL with S33G, S40T, L52M, S69T
notes: IGHG1/IGKC expression vectors; measured from CHO culture supernatant; also called Antibody ID 43
For B21, the dissociation constant (Kd) was found to be 1.28 nM, the koff worked out at 0.000477 s⁻¹ and the kon is 373000 M⁻¹ s⁻¹.

B22: germline variant antibody 52 (H1916F05 / K1916F05) (antibody, V domains shown)
VH: B1 VH with A9T, A24G, E31D, G66E
VL: B1 VL with S33G, S40T, V84L, Y100F
notes: IGHG1/IGKC expression vectors; measured from CHO culture supernatant; also called Antibody ID 52
In the case of B22, binding was characterised by a dissociation constant (Kd) of 1.07 nM, the koff came to 0.000426 s⁻¹ and the on-rate constant (kon) is 397000 M⁻¹ s⁻¹.

B23: germline variant antibody 29 (H1916C11 / K1916C11) (antibody, V domains shown)
VH: B1 VH with A24G, E31D, M48I, L50V, Y54F, S59T, R65K, V68A, K74T
VL: B1 VL with V84L
notes: IGHG1/IGKC expression vectors; measured from CHO culture supernatant; also called Antibody ID 29
On to B23, for which the dissociation constant Kd is 1.06 nM, the dissociation rate constant (koff) worked out at 0.000313 s⁻¹ and the kon was 295000 M⁻¹ s⁻¹.

B24: germline variant antibody 25 (H1916C07 / K1916C07) (antibody, V domains shown)
VH: B1 VH with Y54F, V68A, K74T
VL: B1 VL with S33G, S40T, L52M, S69T, H93Y, Y100F
notes: IGHG1/IGKC expression vectors; measured from CHO culture supernatant; also called Antibody ID 25
B24 showed a Kd of 1.69 nM, a dissociation rate constant (koff) of 0.000632 s⁻¹ and a kon of 374000 M⁻¹ s⁻¹.
